Test results as given in US20250092124A1 (YUNNAN BAIYAO GROUP, published 2025).
Where a chain is given by its changes, count along the chain named.

T1: cynoGDF15-mFC (monkey (cyno); mouse, UniProt G7PWZ3 197-308)
T1 construct: also called monkey GDF15 (cynoGDF15)
T1 sequence (looked up): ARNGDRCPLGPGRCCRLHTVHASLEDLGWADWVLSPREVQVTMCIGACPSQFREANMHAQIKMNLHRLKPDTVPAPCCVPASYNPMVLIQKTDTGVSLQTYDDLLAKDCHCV

T2: fusion protein comprising the extracellular region of human GDF15 protein and human IgG1-FC (human, UniProt Q99988 197-308, limits assumed)
T2 construct: extracellular domain
T2 sequence (looked up): T1 sequence (looked up) with R6H, H21R, E54A, M63T, N64S, V112I

T3: fusion protein comprising the extracellular region of monkey GDF15 protein and human IgG1-FC (monkey (cyno); human, UniProt G7PWZ3 197-308, limits assumed)
T3 construct: extracellular domain; also called cynoGDF15
T3 sequence (looked up): T1 sequence (looked up)

T4: GDF15-HIS (ACROBiosystems, CAT #: GD5-H5149) (human, UniProt Q99988 197-308)
T4 construct: Bought protein; also called GDF15 (ACROBiosystems, GD5-H5149); human GDF15; not shown: His tag
T4 sequence (looked up): T1 sequence (looked up) with R6H, H21R, E54A, M63T, N64S, V112I

T5: GDF15-mFC protein (human; mouse, UniProt Q99988 197-308)
T5 construct: extracellular domain;domain: IgG2a-FC; also called GDF15-mFc fusion protein
T5 sequence (looked up): T1 sequence (looked up) with R6H, H21R, E54A, M63T, N64S, V112I

B1: Ponsegromab (antibody, V domains shown)
VH: QVQLVQSGAEVKKPGSSVKVSCKASGYTFSSYNIDWVRQAPGQGLEWMGGINPIFGTAFYNQKFQGRVTITADESTSTAYMELSSLRSEDTAVYYCAREAITTVGAMDHWGQGTLVTVSS
VL: EIVLTQSPATLSLSPGERATLSCRTSQSVHNYLAWYQQKPGQAPRLLIYDASTRADGIPARFSGSGSGTDFTLTISSLEPEDFAVYYCQQFWSWPWTFGQGTKVEIKR
B2: A1 (murine anti-53E5) (antibody, V domains shown)
VH: QVQLKESGPGILQPSQTLSLTCSFSGFSLSTSGMGVGWIRQPSGKGLEWLAHILWDDVKRYNPALKSRLTISKDSSNSQIFLKIASVDTADTATYYCVQMAWDWFAYWGQGTLVTVSA
VL: DIVMTQAQKFMSTSVEDRVSVTCKASQNVDTNVAWYQQKPGQSPKALIYSASYRSSGVPDRFTGSGSGTDFTLTISNVQSEDLAEYFCQQYHSYPTFGGGTKLEIK
notes: Purified murine hybridoma antibody
B3: A2 (murine anti-53A8) (antibody, V domains shown)
VH: B2 VH with L54R, S75T, N77S, V98A
VL: B2 VL with E16G, N32D, S55Y, S76T, Q89H, H92N
notes: Purified murine hybridoma antibody; also called murine antibody 53A8
B4: AV380-mIgG1 (antibody)
heavy: EVLLQQSGPELVKPGASVKIPCKASGYTFTDYNMDWVKQSHGKSLEWIGQINPNNGGIFFNQKFKGKATLTVDKSSNTAFMEVRSLTSEDTAVYYCAREAITTVGAMDYWGQGTSVTVSSAKTTPPSVYPLAPGSAAQTNSMVTLGCLVKGYFPEPVTVTWNSGSLSSGVHTFPAVLQSDLYTLSSSVTVPSSTWPSETVTCNVAHPASSTKVDKKIVPRDCGCKPCICTVPEVSSVFIFPPKPKDVLTITLTPKVTCVVVDISKDDPEVQFSWFVDDVEVHTAQTQPREEQFNSTFRSVSELPIMHQDWLNGKEFKCRVNSAAFPAPIEKTISKTKGRPKAPQVYTIPPPKEQMAKDKVSLTCMITDFFPEDITVEWQWNGQPAENYKNTQPIMDTDGSYFVYSKLNVQKSNWEAGNTFTCSVLHEGLHNHHTEKSLSHSPGK
light: DIQMTQSPASLSASVGETVTITCRTSENLHNYLAWYQQKQGKSPQLLVYDAKTLADGVPSRFSGSGSGTQYSLKINSLQPEDFGSYYCQHFWSSPYTFGGGTKLEIKRADAAPTVSIFPPSSEQLTSGGASVVCFLNNFYPKDINVKWKIDGSERQNGVLNSWTDQDSKDSTYSMSSTLTLTKDEYERHNSYTCEATHKTSTSPIVKSFNRNEC
notes: also called positive control antibody AV380-mIgG1
B5: A5 (murine anti-50G3) (antibody, V domains shown)
VH: QVTLKESGPGILKPSQTLSLTCSFSGFSLSTSGMGVGWIRQPSGKGLEWLAHIWWNDDKYYNPSLKSHLTISKDTSRNQVFLMITSVDTADTATYYCARGAYDFFDYWGQGTTLTVSS
VL: DIVMTQAQNFMSTSVGDRVSVTCKASQNVDTNVAWYQQKPGQSPKALIYSASYRYSGVPDRFTGSGSGTDFTLTISNVQSDDLADYFCQQYNTYPYTFGGGTKLEIK
notes: as for B2
B6: A6 (murine anti-53D10) (antibody, V domains shown)
VH: QVTLKESGPGIVQPSQPFRLTCTFSGFSLSTSGIGITWIRQPSGKGLEWLATIWWDDDNRYNPSLKSRLTVSKDTSNNQAFLNIITVETADTAIYYCVQSAWDWFAYWGQGTLVTVSA
VL: DIVMTQSQKFMSTSVGDRVSVTCKASQNVGTNVAWYQQKSGQSPKALIYSASYRNSGVPDRFTGSGSGTDFTLTISNVESEDLAEYFCQQYNSHPVTFGGGTKLEIK
notes: as for B2
B7: A3 (murine anti-34G9) (antibody, V domains shown)
VH: QVQLKESGPGILQPSQTLSLTCSFSGFSLNTAGMTVGWIRQPSGKGLEWLAHIWWNDDKYYNPALKSRLTISKDTSNNQIFLEIASVVTADTATYYCTRIATMNYAMDYWGQGTSVTVSS
VL: DIVMTQAPASLAVSLGQRATISCRASQSVSTSSFSYMHWYQQKPGQPPKLLIKYASNLESGVPARFSGSGSGTDFTLNIHPVEEEDTATYYCQHSWEIPYTFGGGTKLEIK
notes: as for B2
B8: A4 (murine anti-2A2) (antibody, V domains shown)
VH: QVTLKESGPGILQPSQTLSLTCSFSGFSLTTSGMGVDWIRQSSGKGLEWLAHIYWDDDKRYNPSLKSRLTISKDTSSNQVFLKITSVDTADTATYYCARRAWDAMDYWGQGTSFTVSS
VL: B5 VL with N9K, S26R, D30G, D81E, D85E, T93S
notes: as for B2

What follows are binders tested against T1, cynoGDF15-mFC (assay: ELISA, cynoGDF15-mFC coated).
Description: The experiment was performed as detailed in Example 2, except that the coating protein was cynoGDF15-mFC (GDF15: Genbank accession number EHH29815.1; mFC: Genbank accession number AAH31470.1), and the antibodies to be tested (the humanized antibodies), negative control antibody (hIgG1), and positive control antibodies Ponsegromab and AV380-hIgG1 were added to each well of the coated plate.

| EC50 [µg/mL] | OD450.Max [OD450] | Binder |
| --- | --- | --- |
| 0.0697 | 1.07 | B1 |

These binders were tested against T2, fusion protein comprising the … (assay: ELISA, human GDF15-hIgG1 Fc coated, HRP anti-mouse IgG).
Description: (§1) A fusion protein comprising the extracellular region of human GDF15 protein (Genbank accession number NM_004864.3) and human IgG1-FC (Genbank accession number CAC20454.1) was diluted to 1 ng/ml with coating solution, followed by adding to ELISA plate at 50 μl/well and incubating at 4° C. overnight. The solution in the wells was discarded and the plate was washed 3 times with washing solution, each time for 3-5 minutes, and dried by tapping. 200 μl of blocking solution was added to each well and incubated at 4° C. overnight. The plate was washed 3 times with washing solution, and the coated plate may be stored at −20° C. or 4° C. for future use.
(§2) The antibodies to be tested (purified antibodies from hybridoma, see Table 1), positive control antibody AV380-mIgG1 (its sequence is from Aveo Oncology; see SEQ ID NO. 1 and SEQ ID NO. 2 for its heavy chain and light chain variable regions, respectively; see SEQ ID NO. 3 and SEQ ID NO. 4 for its heavy chain and light chain constant regions, respectively) and blank control (PBS) were added to the wells. […] The wells were incubated at 37° C. for 1 hour, washed, and dried via tapping. Then the enzyme-labeled secondary antibody, horseradish peroxidase-labeled goat anti-mouse IgG (SIGMA, catalog number A9044-2 ml) was added to each well, at a dilution of 1:10000, 100 μl/well. The wells were incubated at 37° C. for 2 hours, washed, and dried via tapping. 100 μl of freshly prepared developing solution TMB was added to each well and incubated at 37° C. for 30 minutes.
(§3) 2 mol/L H₂SO₄ was added to terminate the reaction, and the OD values were read on enzyme-linked immunosorbent reader. The results were shown in Table 1-1, Table 1-2 and FIGS. 1-1 and 1-2.

| EC50 [µg/mL] | Binder |
| --- | --- |
| 0.0455 | B2 |
| 0.0378 | B3 |
| 0.0313 | B4 |
| 0.0556 | B5 |
| 0.0602 | B6 |

Biological target: T2, fusion protein comprising the …
Experiment: as above
Remark: another data set of the same source
Description: as §1, §2, §3

| EC50 [µg/mL] | Binder |
| --- | --- |
| 0.109 | B7 |
| 0.0296 | B4 |
| 0.046 | B8 |

The binders below were run against T3, fusion protein comprising the … (assay: ELISA, monkey GDF15-hIgG1 Fc coated, HRP anti-mouse IgG).
Description: as §2
(§4) The experiment was performed as detailed in Example 2, except that the fusion protein in Example 2 was replaced with a fusion protein comprising the extracellular region of monkey GDF15 protein (Genbank accession number EHH29815.1) and human IgG1-FC (Genbank accession number CAC20454.1). The results were shown in Table 2-1, Table 2-2 and FIGS. 2-1 and 2-2.

| EC50 [µg/mL] | Binder |
| --- | --- |
| 0.0454 | B2 |
| 0.0677 | B3 |
| 0.0146 | B4 |
| 0.077 | B5 |
| 0.0555 | B6 |

Biological target: T3, fusion protein comprising the …
Experiment: as above
Remark: another data set of the same source
Description: as §2, §4

| EC50 [µg/mL] | Binder |
| --- | --- |
| 0.157 | B7 |
| 0.0258 | B4 |
| 0.0827 | B8 |

These binders were tested against T4, GDF15-HIS (ACROBiosystems, CAT #: …) (assay: BLI (ForteBio Octet), antibody immobilised, GDF15 200-6.25 nM).

| Kd [nM] | koff [s⁻¹] | kon [M⁻¹ s⁻¹] | Binder |
| --- | --- | --- | --- |
| 0.085 | 0.000194 | 2.29e+06 | B2 |
| 0.14 | 0.000318 | 2.28e+06 | B3 |
| 0.0895 | 7.2e-05 | 805000 | B7 |
| 0.097 | 0.000117 | 1.2e+06 | B4 |
| 0.162 | 0.000328 | 2.02e+06 | B5 |
| 0.146 | 0.000214 | 1.47e+06 | B8 |
| 0.0972 | 0.000217 | 2.24e+06 | B6 |

These binders were tested against T5, GDF15-mFC protein (assay: blocking ELISA, GFRAL-hIgG1 Fc coated (competitor), GDF15-mFC 20 ng/well mixed with antibody).
Description: as §1, with “of GFRAL” for “of human GDF15”, “number NM_207410.2)” for “number NM_004864.3)”, “[…]” for “1 ng/ml”, “dried via” for “dried by”, “well followed by incubating” for “well and incubated”
(§5) The antibodies to be tested, positive control antibody AV380-mIgG1 and blank control (PBS) were added to the wells. […] At the same time, GDF15-mFC protein (GDF15: Genbank accession number NM_004864.3; mFC: Genbank accession number AAH31470.1) was added at 20 ng/well and mixed with the antibodies to be tested. The wells were incubated at 37° C. for 1 hour, washed, and dried via tapping. Then the enzyme-labeled secondary antibody, horseradish peroxidase-labeled goat anti-mouse IgG (SIGMA, catalog number A9044-2 ml) was added to each well, at a dilution of 1:10000, 50-100 μl/well. The wells were incubated at 37° C. for 2 hours, washed, and dried via tapping. 100 μl of freshly prepared developing solution TMB was added to each well and incubated at 37° C. for 30 minutes. 2 mol/L H₂SO₄ was added to terminate the reaction, and the OD value was obtained on an enzyme-linked immunosorbent reader.

| IC50 [µg/mL] | Binder |
| --- | --- |
| 0.186 | B2 |
| 0.205 | B3 |
| 0.198 | B4 |
| 0.232 | B5 |
| 0.213 | B6 |

Biological target: T5, GDF15-mFC protein
Experiment: as above
Remark: another data set of the same source
Description: as §1, with “of GFRAL” for “of human GDF15”, “number NM_207410.2)” for “number NM_004864.3)”, “[…]” for “1 ng/ml”, “dried via” for “dried by”, “well followed by incubating” for “well and incubated”
as §5

| IC50 [µg/mL] | Binder |
| --- | --- |
| 0.0916 | B7 |
| 0.14 | B4 |
| 0.0898 | B8 |
